The text below walks through data of patent US20240279315A1 (priority 2023, published 2024).

Read-outs that look alike come from different tables or passages of the source.

Common to all, as to assay: cell-based or functional assay
Assay [1] concerns the target hemagglutinin (HA) of influenza B/Phuket/3073/2013 B-Yam (influenza B virus B/Phuket/3073/2013).
Assay [2] addresses hemagglutinin (HA) of influenza B/Washington/02/2019 B-Vic (influenza B virus B/Washington/02/2019).
For assay [3], the target named is hemagglutinin (HA) of influenza A/Cambodia/e0826360/2020 H3N2 (influenza A virus A/Cambodia/e0826360/2020 (H3N2)).
Assay [4] deals with hemagglutinin (HA) of influenza A/Victoria/2570/2019 H1N1 (influenza A virus A/Victoria/2570/2019 (H1N1)).
The target in assay [5] is hemagglutinin (HA) of influenza A/Kansas/14/2017 H3N2 (influenza A virus A/Kansas/14/2017 (H3N2)).
In assay [6] the target is hemagglutinin (HA) of influenza A/Sydney/5/2021 (influenza A virus A/Sydney/5/2021).
The target of assay [7] is hemagglutinin (HA) of influenza A/Singapore/INFIMH-16-0019/2016 H3N2 (influenza A virus A/Singapore/INFIMH-16-0019/2016 (H3N2)).
For assay [8], the target named is hemagglutinin (HA) of influenza B/Phuket/3073/2013 B-Yam (influenza B virus B/Phuket/3073/2013). This is another data set of the same source.
Assay [9] has as its target hemagglutinin (HA) of influenza B/Colorado/06/2017 B-Vic (influenza B virus B/Colorado/06/2017).
In assay [10] the target is hemagglutinin (HA) of influenza A/Wisconsin/588/2019 (influenza A virus A/Wisconsin/588/2019).
The target of assay [11] is hemagglutinin (HA) of influenza B/Austria/1359417/2021 (influenza B virus B/Austria/1359417/2021).
Assay [12] has as its target hemagglutinin (HA) of influenza A/Darwin/6/2021 (influenza A virus A/Darwin/6/2021).
Assay [13] addresses hemagglutinin (HA) of influenza B/Washington/02/2019 B-Vic (influenza B virus B/Washington/02/2019). This is another data set of the same source.
In assay [14] the target is hemagglutinin (HA) of influenza A/Hawaii/70/2019 (influenza A virus A/Hawaii/70/2019).
Assay [15] deals with hemagglutinin (HA) of influenza A/Tasmania/503/2020 (H3N2) (influenza A virus A/Tasmania/503/2020 (H3N2)).
Assay [16] deals with hemagglutinin (HA) of influenza A/Brisbane/02/2018 H1N1 (influenza A virus A/Brisbane/02/2018 (H1N1)).
The target in assay [17] is hemagglutinin (HA) of influenza A/Singapore/INFIMH-16-0019/2016 H3N2 (influenza A virus A/Singapore/INFIMH-16-0019/2016 (H3N2)). The source holds these as a separate data set.
Assay [18] has as its target hemagglutinin (HA) of influenza A/Hong Kong/4801/2014 H3N2 (influenza A virus A/Hong Kong/4801/2014 (H3N2)).
In assay [19] the target is hemagglutinin (HA) of influenza B/Colorado/06/2017 B-Vic (influenza B virus B/Colorado/06/2017). This is another data set of the same source.
In assay [20] the target is hemagglutinin (HA) of influenza B/Maryland/15/2016 B-Vic (influenza B virus B/Maryland/15/2016).
The target of assay [21] is hemagglutinin (HA) of influenza A/Switzerland/9715293/2013 H3N2 (influenza A virus A/Switzerland/9715293/2013 (H3N2)).
Assay [22] concerns the target hemagglutinin (HA) of influenza B/Brisbane/60/2008 B-Vic (influenza B virus B/Brisbane/60/2008).
Assay [23] has as its target hemagglutinin (HA) of influenza A/Kansas/14/2017 H3N2 (influenza A virus A/Kansas/14/2017 (H3N2)). This is another data set of the same source.
The target of assay [24] is hemagglutinin (HA) of influenza B/California/12/2015 B-Yam (influenza B virus B/California/12/2015).
Assay [25] concerns the target hemagglutinin (HA) of influenza A/Brisbane/02/2018 H1N1 (influenza A virus A/Brisbane/02/2018 (H1N1)). The source holds these as a separate data set.
Assay [26] concerns the target hemagglutinin (HA) of influenza A/Hong Kong/45/2019 H3N2 (influenza A virus A/Hong Kong/45/2019 (H3N2)).
The target in assay [27] is hemagglutinin (HA) of influenza A/Victoria/2570/2019 H1N1 (influenza A virus A/Victoria/2570/2019 (H1N1)). The source holds these as a separate data set.
Assay [28] deals with hemagglutinin (HA) of influenza A/Brisbane/02/2018 H1N1 (influenza A virus A/Brisbane/02/2018 (H1N1)). The source holds these as a separate data set.

With SAB-176 Lot 5 (PD2203294QR) (antibody), the HAI titer of drug substance in [1] was 1920 titer; in assay [2], 3840 titer; in [3] it was 3840 titer; in assay [4] it was 7680 titer. Further, the HAI titer in [5] came out at 320 titer; in [6], 1280 titer; in assay [7], 320 titer; in assay [8], 80 titer; in assay [9] it was 160 titer; in assay [10], 1280 titer. For the same substance, the HAI titer was found to be 40 titer in [11]; 320 titer in [12]; 320 titer in [13]; 1810 titer in assay [14]; 640 titer in assay [15]; 1280 titer in [16].

For the substance SAB-176 Lot 6 (PD2204315QR) (antibody), the HAI titer of drug substance is 1920 titer in assay [1], 3840 titer in [2], 7680 titer in [3] and 7680 titer in assay [4]. Also, the HAI titer in assay [5] worked out at 320 titer; in assay [6] it was 1280 titer; in assay [7], 320 titer; in assay [8] it was 160 titer; in [9], 160 titer; in assay [10], 1280 titer. Moreover, the HAI titer in [11] was determined as 40 titer; in assay [12], 160 titer; in assay [13], 320 titer; in assay [14], 1810 titer; in assay [15], 640 titer; in [16], 1280 titer.

On to SAB-176 (antibody), for which the HAI titer in assay [17] is 512 titer; in assay [18] it was 1024 titer; in [1], 512 titer; in [19], 512 titer; in [20], 512 titer; in assay [21] it was > 2048 titer. Moreover, in assay [22], the HAI titer turned out to be 64 titer.

With SAB-176 Lot 3 (antibody), the HAI titer in assay [23] was 512 titer; in [17] it was 512 titer; in assay [1], 128 titer; in assay [19], 256 titer; in assay [20], 128 titer; in [24], 128 titer. Further, the HAI titer was 64 titer in assay [2], 256 titer in assay [3], 256 titer in assay [4] and 512 titer in assay [25]. Moreover, the HAI titer ratio of SAB-176 to hIVIG in [23] was 16 to 128 X; in [17], 8 to 32 X; in [1], 16 X; in assay [19], 16 to 32 X; in assay [20], 8 to 16 X; in [24] it was 16 to 32 X. Besides, the HAI titer ratio of SAB-176 to hIVIG in assay [2] was in the range of 8 to 16 X; in assay [3] it was 8 to 16 X; in assay [4] it was 16 to 32 X; in assay [25], 16 to 32 X.

On to SAB-176 Lot 2 (PD2001010QR) (antibody), for which the HAI titer in assay [23] amounted to 64 titer; in assay [17], 512 titer; in assay [1] it was 256 titer; in assay [19], 256 titer; in [20], 256 titer; in [24] it was 128 titer. The HAI titer in assay [2] turned out to be 128 titer; in assay [3], 256 titer; in assay [4], 256 titer; in assay [25], 512 titer; in assay [5], 40 titer; in assay [6], 320 titer. For the same substance, the HAI titer was 320 titer in [7]; 160 titer in [8]; 320 titer in [9]; 640 titer in assay [10]; 28 titer in [11]; 113 titer in [12]. For the same substance, the HAI titer came to 160 titer in [13], 640 titer in assay [14], 160 titer in [15] and 1280 titer in [16]. The HAI titer ratio of SAB-176 to hIVIG in [23] was 2 to 16 X; in [17] it was 8 to 32 X; in assay [1] it was 32 X; in assay [19], 16 to 32 X; in [20] it was 16 to 32 X; in [24], 16 to 32 X. Also, the HAI titer ratio of SAB-176 to hIVIG lay within 16 to 32 X in assay [2], 8 to 16 X in assay [3], 16 to 32 X in assay [4] and 16 to 32 X in assay [25]. For the same substance, the HAI titer of drug product was determined as 7170 titer in [17], 3580 titer in assay [1] and 3580 titer in [20].

With negative control IgG (antibody), the HAI titer in assay [23], in assay [17], in [18], in assay [1], in assay [19] and in assay [20] was < 1 titer in each case. In addition, the HAI titer in assay [24], in [21], in assay [2], in assay [3], in assay [4] and in assay [22] was < 1 titer in each case. Besides, the HAI titer in assay [25] and in [26] was < 1 titer each time.

Turning to SAB-176 Lot 1 (PD1901102QR) (antibody), the HAI titer is 64 titer in assay [23]; 512 titer in assay [17]; 128 titer in [1]; 256 titer in [19]; 256 titer in assay [20]; 128 titer in assay [24]. For the same substance, the HAI titer in assay [2] came out at 64 titer; in assay [3], 128 titer; in [26], 64 titer; in assay [27] it was 256 titer; in assay [28], 512 titer; in assay [5], 40 titer. Further, the HAI titer in assay [6] was 320 titer; in assay [7], 320 titer; in assay [8] it was 160 titer; in [9] it was 160 titer; in assay [10] it was 320 titer; in assay [11], 28 titer. In addition, the HAI titer in assay [12] was determined as 113 titer; in assay [13], 160 titer; in assay [14], 1280 titer; in assay [15] it was 40 titer; in assay [16], 1280 titer. The HAI titer ratio of SAB-176 to hIVIG was 2 to 16 X in [23]; 8 to 32 X in assay [17]; 16 X in assay [1]; 16 to 32 X in assay [19]; 16 to 32 X in assay [20]; 16 to 32 X in [24]. Besides, the HAI titer ratio of SAB-176 to hIVIG in assay [2] is 8 to 16 X; in [3] it was 4 to 8 X; in assay [26], 4 to 8 X; in assay [27], 16 to 32 X; in [28] it was 16 to 32 X. Also, the HAI titer of drug product in [17] amounted to 7680 titer; in assay [1] it was 1920 titer; in assay [20], 3840 titer.
